Data reported in patent US20200164029A1 (ACCELERON PHARMA, published 2020).

T1: hENG(26-581)-hFc (human, UniProt P17813 26-581)
T1 construct: not shown: human IgG1 Fc domain
T1 sequence: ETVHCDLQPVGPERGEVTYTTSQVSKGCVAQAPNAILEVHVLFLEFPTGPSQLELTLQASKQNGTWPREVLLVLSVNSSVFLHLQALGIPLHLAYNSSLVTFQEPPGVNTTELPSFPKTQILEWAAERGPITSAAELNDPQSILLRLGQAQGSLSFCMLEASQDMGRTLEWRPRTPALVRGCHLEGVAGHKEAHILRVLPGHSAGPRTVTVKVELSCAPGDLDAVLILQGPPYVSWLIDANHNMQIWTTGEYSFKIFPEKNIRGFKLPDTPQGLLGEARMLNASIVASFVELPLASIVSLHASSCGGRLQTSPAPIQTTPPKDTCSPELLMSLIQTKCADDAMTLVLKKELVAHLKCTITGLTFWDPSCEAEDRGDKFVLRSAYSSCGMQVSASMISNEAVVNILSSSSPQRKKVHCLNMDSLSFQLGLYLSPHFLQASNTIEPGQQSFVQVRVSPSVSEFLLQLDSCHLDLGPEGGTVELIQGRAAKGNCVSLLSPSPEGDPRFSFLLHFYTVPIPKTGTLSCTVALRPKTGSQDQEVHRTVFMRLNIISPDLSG

T2: hENG(26-586) (R&D Systems, catalog #1097-EN) (human, UniProt P17813 26-586)
T2 construct: also called soluble human ENG extracellular domain
T2 sequence: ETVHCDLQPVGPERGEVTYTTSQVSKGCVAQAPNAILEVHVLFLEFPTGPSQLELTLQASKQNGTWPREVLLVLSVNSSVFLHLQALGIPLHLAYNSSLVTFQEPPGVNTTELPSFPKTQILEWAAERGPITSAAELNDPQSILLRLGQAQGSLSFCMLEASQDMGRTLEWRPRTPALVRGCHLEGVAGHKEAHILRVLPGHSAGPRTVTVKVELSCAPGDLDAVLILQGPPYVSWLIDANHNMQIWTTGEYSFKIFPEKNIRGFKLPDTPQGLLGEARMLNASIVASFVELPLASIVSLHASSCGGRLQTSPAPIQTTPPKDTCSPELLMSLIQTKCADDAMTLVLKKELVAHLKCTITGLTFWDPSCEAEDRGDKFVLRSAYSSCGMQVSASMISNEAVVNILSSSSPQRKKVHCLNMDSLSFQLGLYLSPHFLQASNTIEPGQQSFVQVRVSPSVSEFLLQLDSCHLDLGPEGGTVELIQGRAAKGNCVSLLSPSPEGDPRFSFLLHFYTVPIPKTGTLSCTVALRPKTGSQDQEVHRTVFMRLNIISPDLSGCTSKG

T3: hENG(133-346)-hFc (human, UniProt P17813 133-346)
T3 construct: not shown: human IgG1 Fc domain
T3 sequence: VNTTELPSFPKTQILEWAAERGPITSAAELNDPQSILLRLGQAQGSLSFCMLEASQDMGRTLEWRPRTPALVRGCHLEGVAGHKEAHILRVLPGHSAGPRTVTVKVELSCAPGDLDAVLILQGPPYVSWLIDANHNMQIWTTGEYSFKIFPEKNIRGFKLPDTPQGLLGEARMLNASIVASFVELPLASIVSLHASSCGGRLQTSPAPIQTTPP

T4: hENG(360-581)-hFc (human, UniProt P17813 360-581)
T4 construct: not shown: human IgG1 Fc domain
T4 sequence: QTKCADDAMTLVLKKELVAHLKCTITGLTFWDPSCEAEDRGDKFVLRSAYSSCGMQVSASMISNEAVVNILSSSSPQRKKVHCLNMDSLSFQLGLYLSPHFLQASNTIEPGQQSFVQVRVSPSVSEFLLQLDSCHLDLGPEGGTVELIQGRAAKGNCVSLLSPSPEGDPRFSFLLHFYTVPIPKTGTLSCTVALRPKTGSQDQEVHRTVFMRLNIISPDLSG

B1: human BMP-9 (ligand, UniProt Q9UK05 320-429, looked up)
chain: SAGAGSHCQKTSLRVNFEDIGWDSWIIAPKEYEAYECKGGCFFPLADDVTPTKHAIVQTLVHLKFPTKVGKACCVPTKLSPISVLYKDDMGVPTLKYHYEGMSVAECGCR
notes: also called hBMP-9
B2: human BMP-10 (ligand, UniProt O95393 317-424, looked up)
chain: NAKGNYCKRTPLYIDFKEIGWDSWIIAPPGYEAYECRGVCNYPLAEHLTPTKHAIIQALVHLKNSQKASKACCVPTKLEPISILYLDKGVVTYKFKYEGMAVSECGCR
notes: also called hBMP-10

Legend:
hENG(26-581)-hFc = target: T1, hENG(26-581)-hFc; assay: SPR, captured hENG-hFc, ligand at 100 nM; ++++ = KD < 1 nM
[1] = target: T2, hENG(26-586) (R&D Systems, catalog …); assay: SPR competition in solution: 0-50 nM hENG(26-586) premixed with 10 nM BMP-9, binding of BMP-9 to captured ALK1-hFc read out
Source text: (§1) BMP-9 and BMP-10 are high-affinity ligands at the type I receptor ALK1 (activin receptor-like kinase 1). […] Similar results were obtained with BMP-10 (FIG. 21).

hENG(133-346)-hFc = target: T3, hENG(133-346)-hFc; assay: SPR, captured hENG-hFc, soluble ligand
hENG(360-581)-hFc = target: T4, hENG(360-581)-hFc; assay: SPR, captured hENG-hFc, soluble ligand
[2] = target: T2, hENG(26-586) (R&D Systems, catalog …); assay: SPR competition in solution: 0-50 nM hENG(26-586) premixed with 10 nM BMP-10, binding of BMP-10 to captured ALK1-hFc read out
Source text: as §1

Row | Binder | binding result (hENG(26-581)-hFc) | binding result [1] | binding result (hENG(133-346)-hFc) | binding result (hENG(360-581)-hFc) | binding result [2]
1 | B1 | binds | binds | no binding (tested: 100 nM) | no binding (tested: 100 nM) | –
2 | B2 | binds | – | no binding (tested: 100 nM) | no binding (tested: 100 nM) | binds
